Patent US20240182596A1, “ANTI-NAPI2B ANTIBODIES AND ANTIBODY-DRUG-CONJUGATES BASED THEREON, THERAPEUTIC METHODS AND USES THEREOF” (Tubulis GmbH, priority 2022, published 2024)

What was measured:
[1] = target: FcγRIIIa (CD16) (V158) (Homo sapiens) (UniProt P08637); assay: Lumit FcγRIIIa (V158) Binding Immunoassay (Promega), left panel FcγRIIIa (CD16) (V158), competition with Tracer-LgBiT, n=1
[2] = target: recombinant human FcRn (FcγRn-SmBiT, Lumit assay) (human) (UniProt P55899); assay: Lumit FcRn Binding Immunoassay (Promega), competition with Tracer-LgBiT for FcRn-SmBiT, n=1
[3] = target: FcγRIIa (CD32) (H131); assay: Lumit FcγRIIa (H131) Binding Immunoassay (Promega), left panel FcγRIIa (CD32) (H131), competition with Tracer-LgBiT, n=1
Sequence of FcγRIIa (CD32) (H131) (chain, as listed by the source limits assumed): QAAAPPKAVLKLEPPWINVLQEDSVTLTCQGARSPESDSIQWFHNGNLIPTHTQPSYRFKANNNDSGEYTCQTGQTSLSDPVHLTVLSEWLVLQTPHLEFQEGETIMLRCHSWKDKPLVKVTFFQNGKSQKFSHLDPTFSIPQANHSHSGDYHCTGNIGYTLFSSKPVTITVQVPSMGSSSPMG

Sequence of FcγRIIIa (CD16) (V158) (Homo sapiens) (P08637 17-208 F176V limits assumed): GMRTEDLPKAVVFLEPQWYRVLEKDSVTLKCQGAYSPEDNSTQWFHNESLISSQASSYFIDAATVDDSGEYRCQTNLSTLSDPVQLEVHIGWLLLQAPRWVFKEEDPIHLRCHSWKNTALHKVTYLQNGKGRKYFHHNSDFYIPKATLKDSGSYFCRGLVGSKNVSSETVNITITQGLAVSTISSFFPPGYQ
Sequence of recombinant human FcRn (FcγRn-SmBiT, Lumit assay) (human) (P55899 24-297 limits assumed, chain 1 of 2): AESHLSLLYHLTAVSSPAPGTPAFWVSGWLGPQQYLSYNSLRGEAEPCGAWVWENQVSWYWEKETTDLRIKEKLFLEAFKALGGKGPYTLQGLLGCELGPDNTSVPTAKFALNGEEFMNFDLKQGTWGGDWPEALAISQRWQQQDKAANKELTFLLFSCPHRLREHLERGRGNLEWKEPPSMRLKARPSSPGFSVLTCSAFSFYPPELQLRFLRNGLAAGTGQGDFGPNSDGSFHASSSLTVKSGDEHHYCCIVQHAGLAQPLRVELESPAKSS
Sequence of recombinant human FcRn (FcγRn-SmBiT, Lumit assay) (human) (chain, as listed by the source limits assumed, chain 2 of 2): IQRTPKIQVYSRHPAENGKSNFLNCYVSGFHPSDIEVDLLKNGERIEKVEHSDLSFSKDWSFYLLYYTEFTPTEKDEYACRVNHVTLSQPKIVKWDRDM

IgG1 positive control (standard of the Lumit FcγR Binding Immunoassays) (antibody)
IC50 (read off the curve) [1]: 2 µg/mL | IC50 (read off the curve) [2]: 2 µg/mL | IC50 (read off the curve) [3]: 1 µg/mL
